± gives the half width of the 95% confidence interval.

The source of these data is the supplement of paper PMC12764529.

The nature of series [1]: folding stability dG unfold from trypsin proteolysis; higher = more stable. The essentials: (§1)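 Digests were run with trypsin and chymotrypsin at 11 concentrations in threefold dilutions, plus a no-protease condition, on designed mini-proteins in a PA-tagged cDNA display construct. The mini-proteins were under 80 residues, had no cysteine, and were kept only when AlphaFold2 dimer inter-PAE was above 15. After sequencing, Bayesian fitting of the counts gave K50, from which unfolding free energy was derived against a sequence-predicted unfolded-state K50 and a shared folded-state K50, per protease or combined.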

Series [2] in a line: folding stability dG unfold from chymotrypsin proteolysis; higher = more stable. In outline:
as §1

Series [3] is described as follows: folding stability dG unfold (combined trypsin and chymotrypsin); higher = more stable. In outline:
as §1

“SKPDAPKIVELLRELFPDLEITSVSYDPETGTYTVTFPDGVVAEVHVDPNGNVHIVLRTPTSERTFTLPVSA [r9_304_TrMRF]”: the “folding stability dG unfold” value in series [1] stood at 11.2 ± 0.418 kJ/mol; in series [2] it was 9.95 ± 0.18 kJ/mol; in series [3], 10.6 ± 0.293 kJ/mol.
Take “SKPETVTFPFNIPLKDMPLEDIKEEAKEWLRNFGYKVEKPEITPEMLKLLKDMPPGQEIPITITIKVEPKSA [r9_1163_TrROS]”: the figures for the “folding stability dG unfold” value in series [1], in series [2] and in series [3] were 1.26 ± 0.502 kJ/mol, 4.53 ± 0.753 kJ/mol and 3.47 ± 0.356 kJ/mol, respectively.
As to “SKPIPVKITIETKTNPNGEPITTITIDKGDKTYSLPLGNAKILEIDPEKQYIIIYNPETGSILILKPSDLSA [r9_1186_TrMRF]”, the “folding stability dG unfold” value in series [1] is 10.6 ± 0.247 kJ/mol; in series [2] it was 13.1 ± 0.251 kJ/mol; in series [3] it was 12.4 ± 0.243 kJ/mol.
Consider “SKPNLEVKEVEIKMTAEEIKKLLKPNVTKIEKVNGKYYVTVKVNGVLVKIEIKYDKETNEVTVKIYVIKPSA [r9_604_TrROS_Hall]”, for which the results for the “folding stability dG unfold” value in series [1], in series [2] and in series [3] were 9.92 ± 0.301 kJ/mol, 13.03 ± 0.126 kJ/mol and 12.1 ± 0.46 kJ/mol, respectively.
On to “SKTIYIPKNVPIDYILKVVKEAEKKGKPVKIVIETYNNPKVIEALKKAGYKVEIKEDKKKKITLIVVYPESA [r9_759_TrMRF]”, for which the “folding stability dG unfold” value in series [1] stood at 13.9 ± 0.837 kJ/mol; in series [2], 18.2 ± 0.46 kJ/mol; in series [3], 17.6 ± 1.63 kJ/mol.
As to “SKTVEITLTNEDGSTVTITFNEETGKIVIKVPPNVSVEQIKALLRKLLPPGAEVTITRTPNGYYEIEVKPSA [r9_933_TrROS_Hall]”, the “folding stability dG unfold” value in series [1] turned out to be 15.4 ± 0.544 kJ/mol; in series [2], 18.5 ± 0.544 kJ/mol; in series [3] it was 17.3 ± 0.41 kJ/mol.
For “SKTVVIKIDNRVPVPKSDKYVPIKEEFFLKVINEIKKKGYKVIITGANPDNPLAKEVAKKAKELGFEVVGSA [r9_468_TrMRF]”, in that order: 4.15 ± 0.0586 kJ/mol, 3.37 ± 0.343 kJ/mol and 3.86 ± 0.272 kJ/mol.
Regarding “SKTVVVEINGYLIVVEEKKLENGETYYTVKIVNKKTKKVIEVKAKSKEEAEKAVLEALRKLFPDEELKKLSA [r9_749_TrROS_Hall]”, the results for the “folding stability dG unfold” value in series [1], in series [2] and in series [3] were 12.8 ± 0.628 kJ/mol, 10.3 ± 0.314 kJ/mol and 10.5 ± 1.46 kJ/mol, respectively.
Consider “SKVKIVKVEYDKETNVVTVTIYDEKTKKKIEIRYTPGKVEIVVEIDGKKLVLKFKTKEEALEAAKKLLKKSA [r9_527_TrROS_Hall]”, for which the “folding stability dG unfold” value in series [1] was 11.4 ± 0.372 kJ/mol; in series [2] it was 16.5 ± 0.331 kJ/mol; in series [3], 15.1 ± 0.837 kJ/mol.
On to “SKVKPGEKVEYVEITITVDVKSVEELEKKLRELLGVKEVKVTVTEENGKLTLTIVVKSKEEADKLKELLSSA [r9_764_TrROS_Hall]”, for which the entries for the “folding stability dG unfold” value in series [1], in series [2] and in series [3] were 5.09 ± 0.13 kJ/mol, 7.23 ± 0.276 kJ/mol and 6.13 ± 0.669 kJ/mol, respectively.
The corresponding values for “SKVKVEVVEVKYNKETKKFTVKLKVYNEDGELIEEIELEFPESEEEVLKKAEELAKELAEKYGLKIEIKPSA [r9_31_TrROS_Hall]” are 10.1 ± 0.502 kJ/mol, 16.3 ± 0.356 kJ/mol and 14.9 ± 0.502 kJ/mol.
In the case of “SKVRELLREIARPHGMPITDVKVEPPPDGWHKVTFQIQFPMKDPNGQPMRRMTFPATITVRNGKITEITISA [r9_519_TrROS]”, the “folding stability dG unfold” value in series [1] stood at 6.46 ± 0.46 kJ/mol; in series [2], 6.54 ± 0.502 kJ/mol; in series [3] it was 7.2 ± 1.42 kJ/mol.
On to “SKYRILIHTPNPGMPPEEIIDELEEPGFKDVEVVDSPSELKELPPNYDIVIMFHNGQFQISIFPPEELDKSA [r9_750_TrROS]”, for which the figures for the “folding stability dG unfold” value in series [1], in series [2] and in series [3] were 1.32 ± 0.586 kJ/mol, 5.86 ± 1.3 kJ/mol and 3.92 ± 0.837 kJ/mol, respectively.
Take “SLDKARDILREHGMEPTSIDVVEDGWVKVTWEYPGNKVEIFIPEDGNIMIEFRNPNNGQRVERTIPVDDVSA [r9_2_TrROS]”: the “folding stability dG unfold” value in series [1] was -2.05 ± 0.837 kJ/mol; in series [2], 3.15 ± 0.586 kJ/mol; in series [3], 1.98 ± 0.628 kJ/mol.
With “SLKPGETKTLTLLIRTKDPEKTAEELAEEARKEIEELLPPGVKIEVKVTSVEPLPETGEVDVTVEVTVTASA [r9_706_TrMRF]”, the “folding stability dG unfold” value in series [1] turned out to be 12.6 ± 0.795 kJ/mol; in series [2] it was 12.6 ± 0.251 kJ/mol; in series [3], 12.4 ± 0.544 kJ/mol.
“SLSEEEAKDNPEEANEKMQPPPVPPIPLPVPIRNPDNKQEFPAPFEIRTLPNHLEFRFPGNGKPFPVPIDSA [r9_548_TrROS]”: the “folding stability dG unfold” value in series [1] came to 10.6 ± 1 kJ/mol; in series [2] it was 12 ± 0.46 kJ/mol; in series [3], 11 ± 1.17 kJ/mol.
As to “SLSEEELKKKLEELKKKLKPPKPKVKKVKVKIKNKETNEEIEEEVEIVETPDTVYIYNKKTGKLFKFKIKSA [r9_548_TrROS_Hall]”, the “folding stability dG unfold” value is 3.91 ± 0.46 kJ/mol in series [1], 8.14 ± 1 kJ/mol in series [2] and 7.24 ± 1.21 kJ/mol in series [3].
On to “SLSPSTPISSEEEAKEAAEKLAEEVREELGEDLPIVVDIERKELEDGTIVVKFTFYVPETGEKLLEVEVGSA [r9_794_JUSTAS]”, for which the “folding stability dG unfold” value in series [1] was determined as 5.03 ± 0.406 kJ/mol; in series [2], 6.51 ± 0.205 kJ/mol; in series [3] it was 5.31 ± 0.669 kJ/mol.
With “SMAKVTGYPDIFLVTIYKDGEEKTIPVNFEELVELLKKGVKKVEFTTDNPEFAEKFYKLVKSLGVPVNLKSA [r9_810_TrMRF]”, the “folding stability dG unfold” value in series [1] was 6.04 ± 0.0669 kJ/mol; in series [2] it was 11.3 ± 0.167 kJ/mol; in series [3], 9.73 ± 0.184 kJ/mol.
“SMDLRLEVVSVEIEPEGRTLRIRVRVRLTALDPDDPDLPVPVLEVEVEIPIPLPEPLPLPVPNDPRALAASA [r9_357_TrMRF]”: the “folding stability dG unfold” value in series [1] came to 6.81 ± 0.46 kJ/mol; in series [2], 11.5 ± 0.155 kJ/mol; in series [3] it was 9.41 ± 0.879 kJ/mol.
For “SMDPGDPILITIKIPPVPVYRYKRDPDGNPKGYEPVPMPSQELVIIIPANDLEKLLDLLQPFGLDVEIIPSA [r9_167_TrROS]”, the “folding stability dG unfold” value in series [1] is 6.61 ± 0.297 kJ/mol; in series [2], 10.2 ± 0.347 kJ/mol; in series [3], 8.7 ± 0.544 kJ/mol.
The corresponding values for “SMEEVKEALRKAGIDVPVTKIETEKLPDGSYKVTLTVGDKKVLTVYVPPEPPEPPVFYRTPPNGSREPVLSA [r9_442_JUSTAS]” are 1.22 ± 0.502 kJ/mol, 2.21 ± 1.13 kJ/mol and 2.11 ± 0.753 kJ/mol.
For the sequence “SMEITLLSTDPTPGGMTTALWETPNRKVTIFKPPSENYYIVTVEIPGTGKTKTLRFPKNVSPEEIVKKLGSA [r9_522_JUSTAS]”, the “folding stability dG unfold” value in series [1] is 7.89 ± 0.142 kJ/mol; in series [2], 6.47 ± 0.381 kJ/mol; in series [3] it was 7.45 ± 0.31 kJ/mol.
Consider “SMETLEIEITVKVEKDENGKIRKVSVEELKEELEKAGFKITEIEITEVTENTVKIKIKIEKPEEEEEEEESA [r9_225_TrROS_Hall]”, for which the entries for the “folding stability dG unfold” value in series [1], in series [2] and in series [3] were 12.4 ± 1.51 kJ/mol, 13.7 ± 1 kJ/mol and 13.6 ± 2.3 kJ/mol, respectively.
On to “SMEVKIELTDEEIEAALEAGYEVEIEVRVVEVEYDEETDEVTVKVEVTITIRPVPPPPEVVVDEETGEILSA [r9_396_TrROS_Hall]”, for which the “folding stability dG unfold” value in series [1] amounted to 8.79 ± 0.962 kJ/mol; in series [2], 1.43 ± 0.238 kJ/mol; in series [3], 5.33 ± 1.42 kJ/mol.
In the case of “SMFTLVLPDGSVIPVIKGDSTTTVYDPRTGRTLPIPSSTVEENSIEEIVERILAELEKLGVPAQPVEILESA [r9_1211_JUSTAS]”, the “folding stability dG unfold” value was found to be 8.31 ± 0.146 kJ/mol in series [1], 7.19 ± 0.134 kJ/mol in series [2] and 7.71 ± 0.142 kJ/mol in series [3].
